# Source: patent publication US20250388643A1, “GLUCAGON-LIKE PEPTIDE-2 COMPOSITIONS AND METHODS OF MAKING AND USING SAME” (Amunix Pharmaceuticals, Inc., priority 2011, published 2025)
# Read-outs that look alike come from different tables or passages of the source.
# T1: GLP2 G-protein coupled receptor (Homo sapiens, UniProt O95838)
# T1 construct: host or cells: Chem-11 cell
# T1 sequence (O95838 1-553): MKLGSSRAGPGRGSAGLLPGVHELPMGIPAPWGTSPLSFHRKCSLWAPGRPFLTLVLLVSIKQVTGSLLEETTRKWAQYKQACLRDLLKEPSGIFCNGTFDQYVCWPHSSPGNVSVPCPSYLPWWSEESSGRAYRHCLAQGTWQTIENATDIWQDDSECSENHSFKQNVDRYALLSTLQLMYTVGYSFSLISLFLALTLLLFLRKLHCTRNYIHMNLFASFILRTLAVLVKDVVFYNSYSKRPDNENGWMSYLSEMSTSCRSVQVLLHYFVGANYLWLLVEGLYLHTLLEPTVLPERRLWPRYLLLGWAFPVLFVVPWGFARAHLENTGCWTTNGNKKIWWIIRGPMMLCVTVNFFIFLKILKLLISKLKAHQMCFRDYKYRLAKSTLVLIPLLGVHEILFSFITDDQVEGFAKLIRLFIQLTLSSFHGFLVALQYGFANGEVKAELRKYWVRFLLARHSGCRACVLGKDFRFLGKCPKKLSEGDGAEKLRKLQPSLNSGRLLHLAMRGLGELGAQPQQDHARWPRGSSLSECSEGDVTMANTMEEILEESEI
# Legend:
# [1] = cynomolgus monkey, in vivo
# Protocol: The fusion protein GLP2-2G-XTEN_AE864 was evaluated for its pharmacokinetic properties in male cynomolgus monkeys following either subcutaneous or intravenous administration of the fusion protein at a single dosage level. Three male cynomolgus monkeys were injected IV and 3 male cynomolgus monkeys were injected SC with 2 mg/kg (25 nmol/kg) GLP2-2G-XTEN at time 0. Blood samples were collected from each monkey into prechilled heparinized tubes at pre-dose and at approximately 0.083 h (5 min), 1, 2, 4, 8, 24, 48, 72, 96, 120, 168, 216, 264, and 336 hours after administration of the fusion protein for the first phase of the study. Animals were allowed to “wash-out” for a 6 week period (4 weeks post-last collection time point of Phase 1), the groups were crossed over (SC to IV and IV to SC), and dosed again with the same dose of GLP2-2G-XTEN fusion protein. Blood samples were collected at pre-dose and at approximately 0.083 h (5 min), 1, 2, 4, 8, 24, 48, 72, 96, 120, 168, 216, 264, 336, 384, 432, and 504 hours post-dose in the second phase of the study. All blood samples were processed into plasma by centrifugation and split into two aliquots for analysis by ELISA. The samples were analyzed for fusion protein concentration, performed by anti-GLP2/anti-XTEN ELISA (AS1705) and the results were analyzed using WinNonLin to obtain the PK parameters.
# [2] = system: small intestine growth in rats; assay: Intestinotrophic growth in normal rats (small intestine weight and length); format: in vivo, rat
# Protocol: To determine the intestinotrophic properties of GLP2-XTEN, small intestine growth in rats was measured as a primary pharmacodynamic endpoint. […] GLP2-2G-XTEN was dosed at 25 nmol/kg once daily for 12 days. After sacrifice, a midline incision was made, the small intestines were removed, stretched to their maximum length and the length recorded. The fecal material was flushed from the lumen and the small intestinal wet weight recorded. The small intestine length and weight data were analyzed with an ANOVA model with a Tukey/Kramer post-hoc test for pairwise comparisons, with significance at p=0.05.
# [3] = mouse, in vivo
# Protocol: The fusion protein GLP2-2G-XTEN_AE864 was evaluated for its pharmacokinetic properties in C57Bl/6 mice following subcutaneous (SC) administration. Female C57Bl/6 mice were injected SC with 2 mg/kg (25 nmol/kg) of the GLP2-2G-XTEN (lot AP498A) at 0.25 mg/mL (8 mL/kg). Three mice were sacrificed at each of the following time points: Predose, 0.08, 4, 8, 24, 48, 72, 96 and 120 hours post-dose. Blood samples were collected from the mice and placed into prechilled heparinized tubes at each interval and were separated by centrifugation to recover the plasma. The samples were analyzed for fusion protein concentration, performed by both anti-XTEN/anti-XTEN sandwich ELISA (AS1405) and anti-GLP2/anti-XTEN sandwich ELISA (AS1717), and the results were analyzed using WinNonLin to obtain the PK parameters.
# [4] = Analytical size exclusion HPLC of GLP2-2G-XTEN (apparent molecular weight); format: physicochemical
# Protocol: Gel filtration analysis was performed using a Phenomenex BioSep-SEC-s4000 (7.8 mm×600 mm) column. 20 μg or AP690 GLP2-2G-XTEN fusion protein were analyzed at a flowrate of 0.5 ml/min with 50 mM Phosphate pH 6.5, 300 mM NaCl mobile phase. Elution was monitored using OD215 nm. Column calibration was performed using a size exclusion check standard from Phenomenex, with the following markers: thyroglobulin (670 kDa), IgG (156 kDa), BSA (66 kDa) and ovalbumin ([…]). The result (FIG. 11B) indicated an apparent molecular weight of 1002 kDa for the fusion protein of 83.1 kDa actual weight, for an apparent molecular weight factor of […].
# [5] = target: T1, GLP2 G-protein coupled receptor; assay: GLP2R calcium flux potency assay (GPCR Profiler, in vitro receptor binding); format: cell-based; details: calcium flux GLP2R cell assay
# Protocol: A receptor binding assay was performed using a GPCR Profiler assay (Millipore) to assess GLP2-2G-XTEN preparations (including AP690). The assay employed a transfected GLP2R cell line (Millipore, Cat #HTS164C) consisting of a Chem-11 human cell stably transfected with the GLP2 G-protein coupled receptor and a G alpha protein that stimulates calcium flux upon agonism of the GLP2 receptor.
# [6] = normal Sprague-Dawley rats, SC 12 days, peptide 12.5 nmol/kg twice daily, fusion protein 25 nmol/kg once daily
molecule,measurement,setting,value
GLP2-2G-XTEN_AE864: fusion protein of GLP-2 with glycine at position 2 linked at the C-terminus to XTEN AE864; sequence of FIG. 28 (SEQ ID NO: 798) (protein) HGDGSFSDEMNTILDNLAARDFINWLIQTKITDGGSPAGSPTSTEEGTSESATPESGPGTSTEPSEGSAPGSPAGSPTSTEEGTSTEPSEGSAPGTSTEPSEGSAPGTSESATPESGPGSEPATSGSETPGSEPATSGSETPGSPAGSPTSTEEGTSESATPESGPGTSTEPSEGSAPGTSTEPSEGSAPGSPAGSPTSTEEGTSTEPSEGSAPGTSTEPSEGSAPGTSESATPESGPGTSTEPSEGSAPGTSESATPESGPGSEPATSGSETPGTSTEPSEGSAPGTSTEPSEGSAPGTSESATPESGPGTSESATPESGPGSPAGSPTSTEEGTSESATPESGPGSEPATSGSETPGTSESATPESGPGTSTEPSEGSAPGTSTEPSEGSAPGTSTEPSEGSAPGTSTEPSEGSAPGTSTEPSEGSAPGTSTEPSEGSAPGSPAGSPTSTEEGTSTEPSEGSAPGTSESATPESGPGSEPATSGSETPGTSESATPESGPGSEPATSGSETPGTSESATPESGPGTSTEPSEGSAPGTSESATPESGPGSPAGSPTSTEEGSPAGSPTSTEEGSPAGSPTSTEEGTSESATPESGPGTSTEPSEGSAPGTSESATPESGPGSEPATSGSETPGTSESATPESGPGSEPATSGSETPGTSESATPESGPGTSTEPSEGSAPGSPAGSPTSTEEGTSESATPESGPGSEPATSGSETPGTSESATPESGPGSPAGSPTSTEEGSPAGSPTSTEEGTSTEPSEGSAPGTSESATPESGPGTSESATPESGPGTSESATPESGPGSEPATSGSETPGSEPATSGSETPGSPAGSPTSTEEGTSTEPSEGSAPGTSTEPSEGSAPGSEPATSGSETPGTSESATPESGPGTSTEPSEGSAPG,Cl,[1],1.6 mL/h
same,T ½,[1],125 h
same,Vd,[1],0.098 L/kg
same,AUCInf,"[1]; iv, 2 mg/kg","3,700,000 hr * ng/mL"
same,Cl,"[1]; iv, 2 mg/kg",1.9 mL/h
same,T ½,"[1]; iv, 2 mg/kg",110.0 h
same,Vd,"[1]; iv, 2 mg/kg",0.09 L/kg
same,AUCInf,"[1]; sc, 2 mg/kg","3,400,000 hr * ng/mL"
same,T ½,"[1]; sc, 2 mg/kg",120.0 h
same,Vd,"[1]; sc, 2 mg/kg",0.11 L/kg
same,small intestine growth compared with GLP2-2G peptide,[2]; equal nmol/kg dosing,as good or better than GLP2-2G peptide
same,increase in small intestine length,[2]; [6],9%
same,increase in small intestine weight,[2]; [6],31%
same,increase in small intestine length,"[2]; normal rats, 25 nmol/kg once daily for 12 days",10 cm
same,Cl,[3],0.07 mL/h
same,T ½,[3],33.9 h
same,Vd,[3],0.14 L/kg
same,apparent molecular weight,"[4]; SEC, BioSep-SEC-s4000, 50 mM Phosphate pH 6.5, 300 mM NaCl, lot AP690",1002 kDa
same,apparent molecular weight factor,[4]; apparent vs 83.1 kDa actual weight,12.5
same,potency compared to GLP2-2G,[5],about 2%
